The chains are these.
B1: GLI1 (transfected, wild type) [human] / SUFU (transfected, HEK293T) [not stated] (parent)
chain 1: MFNSMTPPPISSYGEPCCLRPLPSQGAPSVGTEGLSGPPFCHQANLMSGPHSYGPARETNSCTEGPLFSSPRSAVKLTKKRALSISPLSDASLDLQTVIRTSPSSLVAFINSRCTSPGGSYGHLSIGTMSPSLGFPAQMNHQKGPSPSFGVQPCGPHDSARGGMIPHPQSRGPFPTCQLKSELDMLVGKCREEPLEGDMSSPNSTGIQDPLLGMLDGREDLEREEKREPESVYETDCRWDGCSQEFDSQEQLVHHINSEHIHGERKEFVCHWGGCSRELRPFKAQYMLVVHMRRHTGEKPHKCTFEGCRKSYSRLENLKTHLRSHTGEKPYMCEHEGCSKAFSNASDRAKHQNRTHSNEKPYVCKLPGCTKRYTDPSSLRKHVKTVHGPDAHVTKRHRGDGPLPRAPSISTVEPKREREGGPIREESRLTVPEGAMKPQPSPGAQSSCSSDHSPAGSAANTDSGVEMTGNAGGSTEDLSSLDEGPCIAGTGLSTLRRLENLRLDQLHQLRPIGTRGLKLPSLSHTGTTVSRRVGPPVSLERRSSSSSSISSAYTVSRRSSLASPFPPGSPPENGASSLPGLMPAQHYLLRARYASARGGGTSPTAASSLDRIGGLPMPPWRSRAEYPGYNPNAGVTRRASDPAQAADRPAPARVQRFKSLGCVHTPPTVAGGGQNFDPYLPTSVYSPQPPSITENAAMDARGLQEEPEVGTSMVGSGLNPYMDFPPTDTLGYGGPEGAAAEPYGARGPGSLPLGPGPPTNYGPNPCPQQASYPDPTQETWGEFPSHSGLYPGPKALGGTYSQCPRLEHYGQVQVKPEQGCPVGSDSTGLAPCLNAHPSEGPPHPQPLFSHYPQPSPPQYLQSGPYTQPPPDYLPSEPRPCLDFDSPTHSTGQLKAQLVCNYVQSQQELLWEGGGREDAPAQEPSYQSPKFLGGSQVSPSRAKAPVNTYGPGFGPNLPNHKSGSYPTPSPCHENFVVGANRASHRAAAPPRLLPPLPTCYGPLKVGGTNPSCGHPEVGRLGGGPALYPPPEGQVCNPLDSLDLDNTQLDFVAILDEPQGLSPPPSHDQRGSSGHTPPPSGPPNMAVGNMSVLLRSLPGETEFLNSSA
chain 2: MAELRPSGAPGPTAPPAPGPTAPPAFASLFPPGLHAIYGECRRLYPDQPNPLQVTAIVKYWLGGPDPLDYVSMYRNVGSPSANIPEHWHYISFGLSDLYGDNRVHEFTGTDGPSGFGFELTFRLKRETGESAPPTWPAELMQGLARYVFQSENTFCSGDHVSWHSPLDNSESRIQHMLLTEDPQMQPVQTPFGVVTFLQIVGVCTEELHSAQQWNGQGILELLRTVPIAGGPWLITDMRRGETIFEIDPHLQERVDKGIETDGSNLSGVSAKCAWDDLSRPPEDDEDSRSICIGTQPRRLSGKDTEQIRETLRRGLEINSKPVLPPINPQRQNGLAHDRAPSRKDSLESDSSTAIIPHELIRTRQLESVHLKFNQESGALIPLCLRGRLLHGRHFTYKSITGDMAITFVSTGVEGAFATEEHPYAAHGPWLQILLTEEFVEKMLEDLEDLTSPEEFKLPKEYSWPEKKLKVSILPDVVFDSPLH

The variants in one experiment derive from B1. In words: co-immunoprecipitation (IP: HA (SUFU-HA), IB: Flag (GLI1-Flag)). To be noted: with SUFU (transfected, HEK293T); HEK293T cells; SUFU-HA + GLI1-Flag + MEKK3-Flag co-expressed; parent: 3.
Turning to chain 1 S201D S204D S243D S968D T1074D S1078D, the screen value turned out to be 3.9.

The same experiment, now with this note: with SUFU (transfected, HEK293T); HEK293T cells; SUFU-HA + GLI1-Flag + Vector (no MEKK3); parent: 1.
With chain 1 S201D S204D S243D S968D T1074D S1078D, the ratio to parent is 3.

Values taken from article PMC6041257.
